Source: patent US20030017170A1 (BURNHAM INSTITUTE, published 2003)
Positions of bridges follow the written chain, without caps; N, C: chain ends. No end group written: not given here.

Legend:
E-selectin:IgG chimera [1] = target: E-selectin:IgG chimera (UniProt P16581); experiment: competition ELISA: inhibition of sLe^x-PAA-biotin binding to coated E-selectin:IgG
E-selectin:IgG chimera [2] = target: E-selectin:IgG chimera (UniProt P16581 22-301); experiment: as above
Chain of E-selectin:IgG chimera (UniProt P16581 22-301) (P16581 22-301, change not shown): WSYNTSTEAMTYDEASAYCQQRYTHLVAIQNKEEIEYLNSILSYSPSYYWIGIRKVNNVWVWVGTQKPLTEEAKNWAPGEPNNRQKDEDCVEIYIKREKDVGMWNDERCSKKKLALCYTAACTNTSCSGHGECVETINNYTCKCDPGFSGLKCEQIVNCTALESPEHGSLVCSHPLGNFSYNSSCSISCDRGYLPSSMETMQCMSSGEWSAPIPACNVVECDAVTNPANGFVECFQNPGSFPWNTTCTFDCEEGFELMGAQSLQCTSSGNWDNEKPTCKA

Chain of E-selectin:IgG chimera (UniProt P16581) (P16581 22-301, change not shown): as above

IC50 (E-selectin:IgG chimera [1])	IC50 (E-selectin:IgG chimera [2])	Binder
10 µM	–	IELLQAR (also: eight copies on branched MAPS core) [IELLQAR (SEQ ID NO:7) multivalent (Fmoc eight branch) peptide]
–	100 µM	CIELLQARC (disulfide 1-9 (inferred), Synthetic peptide cyclised by a disulfide bond; also called cyclic heptapeptide) [synthetic cyclic CIELLQARC (SEQ ID NO:13) peptide]
200 µM	–	IELLQAR [synthetic linear IELLQAR (SEQ ID NO:7) peptide]
